The data set in a line: yeast display, Sf9 membrane polyspecificity reagent, FACS + sequencing; frameworks hold sequencing errors. Put shortly:
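Nanobodies came from a synthetic yeast display library in Saccharomyces cerevisiae BJ5465, induced with galactose for 36–48 hours and stained for 1 hour at 4 °C with 10% biotinylated, detergent-solubilized Sf9 membrane reagent. Cells were enriched on streptavidin microbeads and then FACS-sorted, with low and high (top ~1%) gates set on anti-HA fluorescence for expression and streptavidin fluorescence for reagent binding. Each polyreactivity label reflects the gate a clone came from. Genes were amplified by colony PCR, sequenced by MiSeq 2 × 250 and filtered by CDR length.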
“QVQLVESGGGLVQAGGSLRISCAASGFIFRQYAMGWYRQAPGKERELVAAISRSGGSTYYADSVKGRFTISRDNAKNTVYLQMNSLKPEDTAVYYCNAVPRKYTDEFDYWGQGTQVTVSS”: the “polyreactivity (PSR sort gate)” value was “high polyreactivity”.

For the sequence “QVQLVESGGGLVQAGGSLRLSFAASGRTFGKNAMGWYRQAPGKEREFVAAITSRGGSTYYADSVKGRFTISRDNAKNTVYLQMNSLKPEDTAVYYCNREYKRPSQRTEHYYWGQGTQVTVSS”, the “polyreactivity (PSR sort gate)” value was “low polyreactivity”.

For “QVQLVESGGGLVQAGGSLRLSCAASGRTLGSYAMGWYRQAPGKETELVAAIRGSGVSTYYADSVKGRFTISRDNAKNTVYLQMNSLNPEDTAVYYCAARSYIRVWKKGAVQRSVYYWGQGTQVTVSS”, the “polyreactivity (PSR sort gate)” value is recorded as “high polyreactivity”.

In the case of “QVQLVESGGGLVQAGGSLRLSCAASGSIFTYNTMGWYRPAPGKERELVAAISSGGRTYYADSVKGRFTISRDNAKNTVYLQMTSLKPEDTAVYYCAARYYFWGQGTQVTVSS”, the “polyreactivity (PSR sort gate)” value was “high polyreactivity”.

On to “QVQLVESGGGLVQAGGSLRLSCAASGFTFTRYAMGWYRPAPGKERELVAAISWNGGSMYYADSVKGRFTISRDNAKNTVYLQMNSLKPEDTAVYYCAVRFKYQWSKFGYWGQGTQVTVSS”, for which the “polyreactivity (PSR sort gate)” value is listed as “high polyreactivity”.

For “QVQLVESGGGLVQAGGSLRLSCAASGFIFLPYFMAWYRQAHGKERELVAAISGVGGITYYADSVKGRFTISRDNAKNTVYLQMNSLKPEDTAVYYCAAESSYFVALNQFYTVEFYYWGQGTQVTVSS”, the “polyreactivity (PSR sort gate)” value is “low polyreactivity”.

As to “QVQLVESGGCLVQAGGSLRLSCASSGSTIGGYAMGWYRQAPGKERELVAAITWNGGRTYYADSVKGRFTISRDNAKNTVYVQMTSLKQEDTAVYYCATLNLSRSKRVSGGGYWGQGTQVTVSS”, the “polyreactivity (PSR sort gate)” value is given as “high polyreactivity”.

As for “QVQLVESGGGLVQAGGSLRLSCAASGFIFTQYAMGWYRQAPGKERELVAGITSSGNTYYADSVKGRFTISRDNAKNTVYLQMNSLKPEDTAVYYCAARSYVRRFDGGYWGQGTQVTVSS”, the “polyreactivity (PSR sort gate)” value is on record as “high polyreactivity”.

For “QVQLVESGGGLVQAGGSLRLSCAASGRTFYSNAMGWYRQAPGKERELVAVIRWNGGSTYADSVKGRFTISRDNAKNTVYLQMNSLKPEDTAVYYCAVTRYHSPPRYYYWGQGTQVTVSS”, the “polyreactivity (PSR sort gate)” value is given as “low polyreactivity”.

For “QVQLVESGGGLVQAGGSLRLSCAASGSIIIGNAMGWYRPAPGKERELVAVINGSDGTTYYADSVKGRFTISRDTAKNTVYLQMNSLKPEDTAVYYCNADFIDPSVYDYNYWGQGTQVTVSS”, the “polyreactivity (PSR sort gate)” value is reported as “low polyreactivity”.

“QVQLVESGGGLVQAGGSLRISCAASGFTFVINEMGWYRPAPGKERELVADITSGGDTYYADSVKGRFTISRDNAKNTVYLQMNSLKPEDTAVYYCAAYIYPDWIYLLYGYWGQGTQVTVSS”: the “polyreactivity (PSR sort gate)” value is “low polyreactivity”.

Take “QVQLVESGGGLVQAGGSLRLSCAASGRTFRFYAMGWYRQAPGKERELVAAIRWSGGSTYYADSVKGRFTISRDNAKNTVYLQMNSLKPEETAVYYCAAARWSQYRTWMNYWGQGTQVTVSS”: the “polyreactivity (PSR sort gate)” value was “high polyreactivity”.

Turning to “QVQLVESGGGLVQAGGSLRLSCAASGRIFVYNVMGWYSQAPGKERELVAAISWGTGSTYADSVKGRFTISRANAKNSVYLQMNSLKPEDTAVYYCAADSFIPPYDHWGQGTQVTVSS”, the “polyreactivity (PSR sort gate)” value is “low polyreactivity”.

For the sequence “QVQLVESGGGLVQAGGSLRLSCAASGRIIGWYAMGWYRQAPGKERELVAAISQDATRTYYADSVTGRFTISRDHAKNTVYLQMLRLKPEDTAVYNCNVVYRYAGWSYDSWGQGTQVTVSS”, the “polyreactivity (PSR sort gate)” value is “high polyreactivity”.

“QVQLLESGGGLVQEGGSLRLSCAASGSTFHSYAMGWYRQAPGKERELVAGINRTGGSTYYADSVKGRFTISRDNAKNTVYLQMNSLKPEDTAVYYCAAVSYYASVYRYDYWGQGTQVTVSS”: the “polyreactivity (PSR sort gate)” value is on record as “low polyreactivity”.

Take “QVQLVESGGGLVQAGGSLRLSCAASGSTFYYYAMGWSRQAPGKERELVAAITRGGSTYYADSVKGRFTISRDNAKNTVYLQMNSLRPEDTAVYYCAAKSAYHGLVGGYYYWGQGTQVTVSS”: the “polyreactivity (PSR sort gate)” value was “high polyreactivity”.

As for “HVQLVESGGGLVQAGGSLRLSCAPSGRTFIGYAMGWYRQAPGKERELVAAITSRGRTNYADSVKGRFTISRDNAKNTVYLQMNSLNPEDTAVYYCAARTYGYWYYGFRGDYWGQGTQVTVSS”, the “polyreactivity (PSR sort gate)” value is on record as “high polyreactivity”.

With “HVQLVESGGGLVQAGGILRLSCAASGRIFYRYEKGWYRQAPGKERELVAAITAGGNKYYADSVKGRFTISRDNAKNTVYLQMNSLKPEDTAVDYCGAGTTYSRYSVTRVDYWGQGTQVTVSS”, the “polyreactivity (PSR sort gate)” value is recorded as “high polyreactivity”.

Take “QVHLEESGGGLVQAGRSLRLTCAASGRTFLWYAMGSYRQAPGKETDLVAAIRRSGGGTYYADSVKGRFTISRDNAKNSVYLQMNRLKPEDSGFFYCNSDYRGYQRGVISDGFYYWGLGTQVTVSS”: the “polyreactivity (PSR sort gate)” value is recorded as “low polyreactivity”.

Turning to “QVQLVDSAGGLVQAGGSLRLSCDAYGSNFGVNAMGWYRQAPGKERELVAIITSTTYADSVKGRFTISRDNAKNTVYLQMNSLKREDTAVYYCAIDQERVTKGRFYLLEYDWGHGTQVTVSS”, the “polyreactivity (PSR sort gate)” value was “low polyreactivity”.

For “QVQLVESGGGLVQAGGSLRLSCAASGSTLRYYAMGWYRQAPGKERELVARIRSNGGSTYYADSVKGRFTISRDNAKNTVYLQMNSLKPEDSAVYYCAARTYRGQYYTGFGFGYWGQGTQVTVSS”, the “polyreactivity (PSR sort gate)” value is listed as “high polyreactivity”.

Consider “QVQLVESGGGLVQAGGSLRLSCAASGSIFYSNTMGWYRQAPGKERELVAAISRGGSTYYADSVKGRFTISRENAKNTVYLQMNSLKPEDTAVYYCAARYRWAPAYDYWGQGTQVTVSS”, for which the “polyreactivity (PSR sort gate)” value was “high polyreactivity”.

As for “QVQLVESGGGLVQAGGSLRLSCAASGRTFPYNAMGWYRQAPGKERELVAVISSSGGSTYYADSVKGRFTISRDNAKNTVYLQMNSLKPEDTAVYYCNTRPYYYRRPGYRYSGYDYWGQGTQVTVSS”, the “polyreactivity (PSR sort gate)” value is reported as “high polyreactivity”.

For “QVQLVESGGGFVQAGGSLRLSCAASGFTFRYYAMGWYRQAPGKERELVAAISRGGNTYYADSVKGRFTMSRDNAKNTVYLQMNSLKPEDTAVYFCNSAYLYIARHGYWGQGTQVTVSS”, the “polyreactivity (PSR sort gate)” value is “high polyreactivity”.

In the case of “QVQLVESGGGLVQAGGSLRLSFAASGSTFPSYAMGWYRQAPGKERELVAAITKGGSTTYADSVKGRFTISRDNAKNTVYLQMNSLKPEDTAVYYCAARYYYYYYYIRRDYWGQGTQVTVSS”, the “polyreactivity (PSR sort gate)” value is given as “low polyreactivity”.

Regarding “QVQLVESGVGLVQGGGSLRLTCAASGYTFPRYTKGWYRQPPGKERELVASINWSGGSTYYADSVKGRFTISRDNAKNNVYLQMNCLKPDDTAVYFCNKAYVSRYDYWGQGSQVTVSS”, the “polyreactivity (PSR sort gate)” value is “high polyreactivity”.

Regarding “QVQLVESGGGLVQAGGSLRLSCAASGRTLTSNAMGWYRQAPGKERELVASITGSSSNTYYADSVKGRFTISRDNAKNTVYLQMNSLKPEDTAVYYCAAEVGFPWWRLDEYWGQGTQVTVSS”, the “polyreactivity (PSR sort gate)” value is recorded as “low polyreactivity”.

For “QVQLVESGGGLLQAGGSLRLSCASSGITFGDNVMGWYRQAPGKERELVAAISRIGDDTYYADSVKGRFTISRDNAKNTVFFQMNSLKPEDTAVYYCATDFTQRDYYNYGYWGQRTQVTVSS”, the “polyreactivity (PSR sort gate)” value is on record as “low polyreactivity”.

As for “QVQLVESGGGLFQAGGSLRLSCAASGRIFGAYTKRSYRQAPGKERELVAAITGRGGGTYYADSVKGRFTISRDNAKNTVYLQMNSLKPEDTAVYYCNVKLYYYYFRMYYWGQGTQVTVSS”, the “polyreactivity (PSR sort gate)” value was “low polyreactivity”.

As to “QFQLVESGGGLVQAGGSLRLSCAASGRTFSWSAMGWYRQAPGKERELVAAISASGGRTYYADSVKGRFTISRDNANNSVYLQMNSLKPEDTAVYYCAKVVKKIEFDYWGQGTEVTVSS”, the “polyreactivity (PSR sort gate)” value is reported as “high polyreactivity”.

As to “QVQLVESGGGLVQAGGSLRLSCAASGFTFAYNAMGWYRQAPGKERELVAAISSGGTRTYYADSVKGRFTISRDNAKYTVYLQLNSLNPEDTAVYYCASERVGWSGYRGDYLGQGTQVTVSS”, the “polyreactivity (PSR sort gate)” value is “high polyreactivity”.

With “QVQLVESGGGLVQAGGSLRLSCAASGRIFGWYAMGWYRQAPGKERELVAAISSADSTNYADSVKGRFTIARDNAKNTVYLQMNSLKPEDTAVYYCNAEGLPGNVVYGYYYWGQGTQLTVSS”, the “polyreactivity (PSR sort gate)” value is recorded as “low polyreactivity”.

For “QVQLVESCGGLVQAGGSLRLSCAASGFTFLGYAMGWYRQAPGKERELVAAITSGDSTDYADSVKGRFTISRDNAKNTVYLQMNSLKPEDTAVYYCNAELGSAYEYWGQGTQVTVSS”, the “polyreactivity (PSR sort gate)” value is given as “low polyreactivity”.

With “QVQLVESGGGLVQAGGSLRLSCAASGSIFGVYTMGWYRQAPWKERELVAAISRNGGSTYYEDSVKGRFTISRDNAKNNVYLQMNSLKPEDTAVYYCATSTSRRYGSRHNYWGQGTQVTVSS”, the “polyreactivity (PSR sort gate)” value was “high polyreactivity”.

For “QVQLVESGGGLVQAGRSLRVSCAASGRIFIWNAMGWYRQAPGNERELVAAISWSGGSTYYADSVKGRFTISRDNAKNTVYLQINSLKPEDTAVYYCAARDVRPYYVKPPVRYYYWGQGTQVTVSS”, the “polyreactivity (PSR sort gate)” value is given as “high polyreactivity”.

As for “QVQLVESGGCLVQAGGSLRLSCAASGFTFSNYAMGWYRQPPGKESEFVAAISGTGGSTYYADSVKGRFTISRVNAKNTVYLQMNSLKPEDTAVYYCARRRTYPPGRYYYWGQGTQVTVSS”, the “polyreactivity (PSR sort gate)” value was “high polyreactivity”.

Turning to “QDQLVESGGGLVQAGGSLRLSCAASGRIFYVYAMGWYRQAPGKEREFVASISWSGGSTYYADSVKGRFTISRDNAKNTFYLQLNSLKPEDTSVYYCNARAFTHRYDYWGQGTQVTVSS”, the “polyreactivity (PSR sort gate)” value is “low polyreactivity”.

On to “QVQLVESGGGLVQAGGSLRLSCAASGRIFWYNAMGWYRPAPGKERELVASITRGNNTYYADSVKGRFTISRDNAKTTVYLQMNSLKPEDTAVYYCAKRYIYRYYWGQGTQVTVSS”, for which the “polyreactivity (PSR sort gate)” value was “high polyreactivity”.

For “QVQLVESGGGLVQAGGSLRLSCAASGRTFYTYAMGWYRQAPGKERELVAAITVTGDSTYYADSVKGRFTISRDNAKNTVYLQMNSLKPEDTAVYYCAADDYDPWYDWTMYYWGQGTQVTVSS”, the “polyreactivity (PSR sort gate)” value is listed as “high polyreactivity”.

On to “QVQLVESGGGLVQAGGSLRLSCAASGSIFASYAMGWYRQAPGKERELVAAISRRAVRTYYADSVKGRFTISRDNAKNTVYLQMNSLKPEDTAVYYCNAASSLPGYDYWGQGTQVTVSS”, for which the “polyreactivity (PSR sort gate)” value was “high polyreactivity”.

On to “QVQLVESGGGLVQAGGSLRLSCAASGSIFTAYDKGWYRQAPGKVRDLVAAINVSAGTTYYADSVKGRFTISRDNAKNTVYLQMNSLKPEDTAVYYCATDRSPTPYTRENIYDYWGQGTQVTVSS”, for which the “polyreactivity (PSR sort gate)” value is listed as “low polyreactivity”.

The values above are taken from the nanobody polyreactivity screen of Harvey et al. (2022).
